Experimental data taken from PMC2172055 (The Journal of Cell Biology, 2004).

Key:
Sec61α = Sec61α (canine (endogenous in MDCK), UniProt P38377 1-476); experiment: FRET or BRET
Sec61β = Sec61β (canine (endogenous in MDCK), UniProt P60467 1-96); experiment: FRET or BRET
Chain of Sec61β (P60467 whole entry): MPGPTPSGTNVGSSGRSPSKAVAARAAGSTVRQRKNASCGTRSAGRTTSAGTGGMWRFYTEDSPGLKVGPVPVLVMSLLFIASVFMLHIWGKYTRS

Chain of Sec61α (P38377 whole entry): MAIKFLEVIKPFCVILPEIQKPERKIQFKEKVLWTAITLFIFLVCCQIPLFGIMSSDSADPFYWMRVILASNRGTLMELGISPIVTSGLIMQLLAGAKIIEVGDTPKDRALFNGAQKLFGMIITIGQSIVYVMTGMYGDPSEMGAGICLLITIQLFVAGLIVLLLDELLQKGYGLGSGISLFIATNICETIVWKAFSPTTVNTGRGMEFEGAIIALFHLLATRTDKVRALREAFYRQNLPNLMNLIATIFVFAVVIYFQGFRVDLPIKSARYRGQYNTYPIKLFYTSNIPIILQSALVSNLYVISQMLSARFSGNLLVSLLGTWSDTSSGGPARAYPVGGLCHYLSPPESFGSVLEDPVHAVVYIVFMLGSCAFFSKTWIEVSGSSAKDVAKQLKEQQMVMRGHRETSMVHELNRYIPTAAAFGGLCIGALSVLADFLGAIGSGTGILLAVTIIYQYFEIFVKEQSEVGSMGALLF

FRET efficiency (pactamycin-treated cells) (Sec61α) [%]	FRET efficiency (puromycin-treated cells) (Sec61α) [%]	FRET efficiency (untreated cells) (Sec61α) [%]	FRET efficiency (pactamycin-treated cells) (Sec61β) [%]	FRET efficiency (puromycin-treated cells) (Sec61β) [%]	FRET efficiency (untreated cells) (Sec61β) [%]	Binder
15.2	13.6	18.4	11.8	11.1	13.6	TRAPα (natural protein) GPGGSLVAAQDLTEDEETVEDSIIEDEDDEAEVEEDEPTDLAEDKEEEDVSGEPEASPSADTTILFVKGEDFPANNIVKFLVGFTNKGTEDFIVESLDASFRYPQDYQFYIQNFTALPLNTVVPPQRQATFEYSFIPAEPMGGRPFGLVINLNYKDLNGNVFQDAVFNQTVTIIEREDGLDGETIFMYMFLAGLGLLVVVGLHQLLESRKRKRPIQKVEMGTSSQNDVDMSWIPQETLNQINKASPRRLPRKRAQKRSVGSDE
19.7	19.8	17.6	10.4	11.9	12.8	TRAM (natural protein) MAIRKKSTKSPPVLSHEFILQNHADIVSCVAMVFLLGLMFEITAKASIIFVTLQYNVTLPATEEQATESTSLYYYGIKDLATVFFYMLVAIIIHAIIQEYVLDKINRRMHFSKTKHSKFNESGQLSAFYLFSCIWGTFILISENYISDPTILWRAYPHNLMTFQMKFFYIAQLAYWFHAFPELYFQKTKKEDIPRQLVYIGLYLFHIAGAYLLNLNHLGLVLLVLHYFVEFLFHISRLFYFSDEKYQKGFSLWAVLFVLGRLLTLILSVLTVGFGLARAENQKLDFSAGNFNVLAVRIAVLASICITQAFMMWKFINFQLRRWREHSTFQAPVVKKKPTVTKGRSSRKGTENGVNGTVTSNGADSPRNRKEKSS
32.2	31.6	34.1	18.8	17.2	16	SRα (natural protein) MLDFFTIFSKGGLVLWCFQGVSDSCTGPVNALIRSVLLQERGGNNSFTHEALTLKYKLDNQFELVFVVGFQKILTLTYVDKLIDDVHRLFRDKYRTEIQQQSALSLLNGTFDFQNDFLRLLREREESSKIRAPTTMKKFEDSEKAKKPVRSMIETRGEKPKEKAKNSKKKGAKKESSDGPLATGKAVPAEKSGLPAGPENGVELSKEELIRRKREEFIQKHGRGLEKSSKSTKSDAPKEKGKKAPRVWALGGCANKEVLDYSAPTTNGAPDAAPPEDINLIRGTGPGGQLQDLDCSSSDDEETAQNASKPSATKGTLGGMFGMLKGLVGSKSLSREDMESVLDKMRDHLIAKNVAADIAVQLCESVANKLEGKVMGTFSTVTSTVKQALQESLVQILQPQRRVDMLRDIMDAQRHQRPYVVTFCGVNGVGKSTNLAKISFWLLENGFSVLIAACDTFRAGAVEHVRTHTRRLSALHPPEKHAGPTMVQLFEKGYGKDAAGIAMEAIAFARNQGFDVVLVDTAGRMQDNAPLMTALAKLITVNTPDLVLFVGEALVGNEAVDQLVKFNRALADHSMAQTPRLIDGIVLTKFDTIDDKVGAAISMTYITSKPIVFVGTGQTYCDLRSLNAKAVVAALMKA
